Experiment: yeast display, Sf9 membrane polyspecificity reagent, FACS + sequencing; frameworks hold sequencing errors
Procedure, shortened: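 Nanobodies came from a synthetic yeast display library in Saccharomyces cerevisiae BJ5465, induced with galactose for 36–48 hours and stained for 1 hour at 4 °C with 10% biotinylated, detergent-solubilized Sf9 membrane reagent. Cells were enriched on streptavidin microbeads and then FACS-sorted, with low and high (top ~1%) gates set on anti-HA fluorescence for expression and streptavidin fluorescence for reagent binding. Each polyreactivity label reflects the gate a clone came from. Genes were amplified by colony PCR, sequenced by MiSeq 2 × 250 and filtered by CDR length.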

Sequence | polyreactivity (PSR sort gate)
QVQLVESGGGLVQAGGSLRLSCAPSGSTFYIYAMGWYRQAPGKERELVAAISTTDGTTYYADSVKGRFTISRDNAKNTVYLQMNSLKPEDTAVYYCAAEWFGSVQPAYDYWGQGTQVTVSS | high polyreactivity
QVQLVESGGGLVQAGGSLRLSCAPSGYTYSDYAMGWYRQAPAKERELVAGITGGGGTYYADSVKGRFTISRDNAKNTVYLQMNSLKPEDTAVYYCAAGRRHGFGYWGQGTQVTVSS | low polyreactivity
QVQLVESGGGLVQAGGSLRLSCASSALIFYWYPIGWYRQAPGKESELVAAISYGGTTTSYADSVKGRFTISRDNATNTVYLQMNSLKPEDTAVYYCAADWLYGHFQITGYPVGVDYWGQGTQVTVSS | low polyreactivity
QVQLVESGGGLVQAGGSLRLSCASSARIFFWYTMGWYSQAPGKERELVAAITSSGNTNYADSVKGRFTISRDNAKNTVYLQMNSLKPEDTAVYYCATGSYSYYSLFDYWGQGTQVTVSS | low polyreactivity
QVQLVESGGGLVQAGGSLRLSCASSGFIFHTYAMGWYRQAPGKERELVAAISGGTSSTYYADSVKGRFTISRDNAKNTVYLQMKSLKPEDTAVYYCAARSRRGGYPRYFYWGQGTQVTVSS | high polyreactivity
QVQLVESGGGLVQAGGSLRLSCASSGFTFAYYAMGWYRQAPGKERELVAAISSRGGSTYADSVKGRFTISRDNAKNTVYLQMNSLKPEYTAVYYCNAVVPRSRYFSWTYDYWGQGTQVTVSS | high polyreactivity
QVQLVESGGGLVQAGGSLRLSCASSGFTFFYYAMGWYRQAPGKERELVAAISASGGSTSYADSVKGRFTISRDNAKNTVYLQMNSLKPEDTAVYYCAARVYSVRSGYYYWGQGTQVTVSS | high polyreactivity
QVQLVESGGGLVQAGGSLRLSCASSGFTFRYYAMGWYRQAPGKERELVAAITGNGGSTYYADSVKGRFTISRDNAKNTVYFQMNSLKPEDTAVYYCNKPYFTASGDRFGYWGQVTQVTVSS | high polyreactivity
QVQLVESGGGLVQAGGSLRLSCASSGFTFSVYAMGWYRQAPGKERELVAAITWRGGSTYYADSVKGRFTISRDNAKNTVYLQMNSLKPEDTAVYYCAVLYPKYGKRYGYWGQGTQVTVSS | high polyreactivity
QVQLVESGGGLVQAGGSLRLSCASSGFTFTYNVMGWYRQAPGKERELVAAISWSGTSTSYADSVKGRFTISRDNAKNTVYLQMNSLNPEDTAVYYCAVQRKSSKRAFRYGYWGQGTQVTVSS | high polyreactivity
QVQLVESGGGLVQAGGSLRLSCASSGFTFYYSMGLYRQAPVKERELVASINYSGGSTYYADSVKGRFTISRDNGKNTLYLQMNSLKAEETGVYYCAVDVRPRGLMYYWGQGTQVTVSS | low polyreactivity
QVQLVESGGGLVQAGGSLRLSCASSGFTLYANAMGWYRQAPGKERELVADISESGSSTSYADSVKGRFTISRDNAKNTVYLQMKSLKPEDTAVYYCYDYWVQGTQVTVSS | low polyreactivity
QVQLVESGGGLVQAGGSLRLSCASSGGTFEVNAMGWYRQAPGKERELVAAIDTSDGSTYYADSVKGRFTISRDNAKNTVYFQMNSLKPEDTSVYYCAAERLFRFWYSAYERYDYWGQGTQVTVSS | low polyreactivity
QVQLVESGGGLVQAGGSLRLSCASSGGTFSPYAMVWYIQAPGKEREMVAVIRSDVTTNYADSVKGRFTISRDNAKNTLYLQMNRLKPEDTAVYYCAVQYLGYGGLFPLDYWGQGTQVTVSS | low polyreactivity
QVQLVESGGGLVQAGGSLRLSCASSGGTFVTNAMGWYRQAPAKERELVAAISYDGGITYYADSVKGRFTISRDNAKNTVYLKMNSLKPEDTAVYYGAAYRRYRNWFNYWGQGTQVTVSS | high polyreactivity
QVQLVESGGGLVQAGGSLRLSCASSGHIFTRNAMGWYIQAPGKERELVAAISRTGGSTYYADSVKGRFTISRDNAKNTVYLQMNSLKPEDTAVYYCNARGTYTSRRGYDYWGQGTQVTVSS | high polyreactivity
QVQLVESGGGLVQAGGSLRLSCASSGIIFSYNAMGWSRQAPGKERELVAAISSGGRTYYADSVKGRFTISRDNAKNTVYLQMKSLKPEDTAVYYCATTSPHRLYGYYYDYWGQGTQVTVSS | high polyreactivity
QVQLVESGGGLVQAGGSLRLSCASSGIIFTFNAKGWYRQAPGKERELVAAISGRGARTYYADSVKGRFTISRDNAKNTVYLKMKSLKPEDTAVYYCAAPSNSYRSLSNSYQYYYWGQGSQVTVSS | high polyreactivity
QVQLVESGGGLVQAGGSLRLSCASSGITFDYYDMGWYRQPPGKERELVAAISTGGGRTYYADSVKGRFTFSRDNAKNTVYLQMNSLKPEDTAVYYCAATYTRVPNRFYYWGQGTQVTVSS | high polyreactivity
QVQLVESGGGLVQAGGSLRLSCASSGITFRYYAMGWYRQAPGKERELVAAITWSGGSTYYADSVKGRFTISRDNAKNTVYLQMNSLKPEDTAVYYCAADAYVLFYGDWYEFDYWGQGTQVTVSS | high polyreactivity
QVQLVESGGGLVQAGGSLRLSCASSGITFSFYVMGWYRQAPGKERELVAAISRGGSTYYADSVKGRFTISRDNANNTVYLQMNSLKPEDSAVYYCAAVRLSRVYYWGQGTQVTVSS | high polyreactivity
QVQLVESGGGLVQAGGSLRLSCASSGLIFPYNAMGWYRKAPGKERELVAAIDSGVTTYYADSVKGRFTISRDNAKNTVYLQMNSLKPEDTAVYYCAAVGLPGPEGDSWGQGTQVTVSS | low polyreactivity

Sequence | polyreactivity (PSR sort gate)
QVQLVESGGGLVQAGGSLRLSCASSGLIIDYYAMGWYRQAPGKERELVAAITSSSGITYYADSVKGRFTISRDNAKNTVYLQMNSLKPEDNAVYYCAAYTTYKLYEYAYWGQGTQVTVSS | low polyreactivity
QVQLVESGGGLVQAGGSLRLSCASSGNIFRYYVMGWYRKAPGKEREFVAAITSSGGSTYYADSVKGRFTISRDNAKNTVYFQINSLKPDDSEVYYCAKDYWDPGWAEYDYWGQCTQVTVSS | low polyreactivity
QVQLVESGGGLVQAGGSLRLSCASSGNIFYLYAKGWYRQARGKERELVAAIRGSGSTYYADSVKGRFTISRDNAKNTVYLQMNSLKPEDTAVYYCNARVRSQYLYSGTALGYYYWGQGTQVTVSS | high polyreactivity
QVQLVESGGGLVQAGGSLRLSCASSGPTFNEYAMAWYRQAPRKERELVARITRGGSTYYADSVKGRFTISRDNAKNTFYFQINSLIPEDTAVYEFAADLSLLYGGYWITDYDYWVQGTQVTVSS | low polyreactivity
QVQLVESGGGLVQAGGSLRLSCASSGRIFAHNAMGWYSQAPGKERELVAAINSGGSTDYADSVKGRFTISRDNAKNTVYLQMNSLKPEDTAVYYCAADDPGSFPDDSWGQGTQGTVSS | low polyreactivity
QVQLVESGGGLVQAGGSLRLSCASSGRIFFKYAMGWYRQARGKERELLATITWRGSSTYYADSVKWRFTISRDNAKNTVYFQMNSLKPEDTAVYYCAAVAAWWYHQGVRYDYWGQGSQVTVSS | high polyreactivity
QVQLVESGGGLVQAGGSLRLSCASSGRIFRWYAMGWYRQAPGKERELVAAISRSGTSTYYADSVKGRFTISRDNAKNTVFLQMNSLKPEDTAVYYCNTDVQVYSYNYWGQGTQVTVSS | low polyreactivity
QVQLVESGGGLVQAGGSLRLSCASSGRIFSGNAMAWYRQAPGKEMEFVASISRSGGRTRYADSVKGRFTISRDNAKNTVYLQMNSLKPEDTAVYYCAADRSRRGHLTHGYWGQGTQVTVSS | high polyreactivity
QVQLVESGGGLVQAGGSLRLSCASSGRIFSQNAMGWYRQAPGKERELVAAISGGSTNYADSVKGRFTISRDNAKNPVYLQMNSLKPEDTAVYYCAADAPFKMDYWGQGTQVTVSS | low polyreactivity
QVQLVESGGGLVQAGGSLRLSCASSGRISASYAMGWYRQAPGKERELVAAITGSGGSTYYADSVKGRFTISRDNAKNTVYLQMNSLKPEDTAVYYCAAEPGLSVFFEFDSWGQGTQVTVSS | low polyreactivity
QVQLVESGGGLVQAGGSLRLSCASSGRTFAYNALGWYREAPGKERELVAAISASGGSTYYADSVKGRFTISRDNAKNTVYLQMNSLKPEDTAVYYCAAYVRSAYYAIHVDYWGQGTQVTVSA | low polyreactivity
QVQLVESGGGLVQAGGSLRLSCASSGRTFNFYAMGWYRQAPGKERELVAAISHGDSTYYADSVKGRFTISRDNAKNTVYLQMNSLKPEDTAVYYCAASQKYYLLKYEYWGQGTQVTVSS | low polyreactivity
QVQLVESGGGLVQAGGSLRLSCASSGRTFPGNAMGWYRQAPGKERELVAAISWSGTRTYYADSVKGRFTISRDNAKNTVYLQMNSLKPEDTAVYYCNVVVKGAWDYYPYAYWGQGTQVTVSA | high polyreactivity
QVQLVESGGGLVQAGGSLRLSCASSGRTFQVNAMGWYRQAPGKERELVAAISASDGSTYADSVKGRFTISRDNAKNTVYLQMNSLKPEDTAVYYCNKAAYGGHRTSEQVGWVYLYDYWGQGTQVTVSS | low polyreactivity
QVQLVESGGGLVQAGGSLRLSCASSGRTFRSYAMGWYRQAPGKERELVAAITYSGGNTYYADSVKGRFTISRDNAKNTVYLQMNSLKPEDTAVYYCAYLKTPRGYDYWGQGTQVTVSS | high polyreactivity
QVQLVESGGGLVQAGGSLRLSCASSGRTFYINAMVWYRQAPGKERELVAAISIRGGRTYYADSVKGRFTISRDNAKNTVYLQMISLKPEDTAVYYCAADYGSLRQRTLYEYWGQGTQVTVSS | low polyreactivity
QVQLVESGGGLVQAGGSLRLSCASSGRTISHNAMGWYRQAPGKERELVAAISRSGGRTYYADSVKGRFTISRYNAKNTVYLQMNSLKPEDTAVYYCAAEYFDGSTYSYYYWGQGTQVTVSS | high polyreactivity
QVQLVESGGGLVQAGGSLRLSCASSGSIFGSNAMGWYRQAPVKERELVAAITWSDGSTYYADSVKGRFTISRDNAKNTVYLQMNSLKPEDTAVYYCAVVWRGGYRWPYEYWGQGTQVTVSS | low polyreactivity
QVQLVESGGGLVQAGGSLRLSCASSGSIFKAYAMGLSRQAPGKERELVAAIRGSGGRTYYADSVKGRFTISRDYAKNTVYLQMNSLKPEDTAVYYCNTVRSTPNGLDYDYWGQGTQVTVSS | low polyreactivity
QVQLVESGGGLVQAGGSLRLSCASSGSIFNYNSMGGYRQAPGKERELVAGITTSGGSTYYADSVKGRFTISRDNAKNTVYLQMNSLKPEDTAVYYCAGYDYISSTYFLDDFWGQGSQVTVSS | low polyreactivity
QVQLVESGGGLVQAGGSLRLSCASSGSIFPEYDMVWYRQAPGKERELVASISSGGSSTYYADSVKGRFTISRDNAMNTVYLQMNSLKPEATAVYYCARRRSYKRGFDYWGQGTQVTVSS | low polyreactivity

Source: the nanobody polyreactivity screen of Harvey et al. (2022)
